Reference: patent US20180057604A1 (Genentech, published 2018)

T1: cyno TfR extracellular domain (analogous construct to human TfR ecd) (cynomolgus monkey, UniProt Q5RDH6 87-760 (Pongo abelii entry))
T1 construct: also called cynoTfR ecd
T1 chain: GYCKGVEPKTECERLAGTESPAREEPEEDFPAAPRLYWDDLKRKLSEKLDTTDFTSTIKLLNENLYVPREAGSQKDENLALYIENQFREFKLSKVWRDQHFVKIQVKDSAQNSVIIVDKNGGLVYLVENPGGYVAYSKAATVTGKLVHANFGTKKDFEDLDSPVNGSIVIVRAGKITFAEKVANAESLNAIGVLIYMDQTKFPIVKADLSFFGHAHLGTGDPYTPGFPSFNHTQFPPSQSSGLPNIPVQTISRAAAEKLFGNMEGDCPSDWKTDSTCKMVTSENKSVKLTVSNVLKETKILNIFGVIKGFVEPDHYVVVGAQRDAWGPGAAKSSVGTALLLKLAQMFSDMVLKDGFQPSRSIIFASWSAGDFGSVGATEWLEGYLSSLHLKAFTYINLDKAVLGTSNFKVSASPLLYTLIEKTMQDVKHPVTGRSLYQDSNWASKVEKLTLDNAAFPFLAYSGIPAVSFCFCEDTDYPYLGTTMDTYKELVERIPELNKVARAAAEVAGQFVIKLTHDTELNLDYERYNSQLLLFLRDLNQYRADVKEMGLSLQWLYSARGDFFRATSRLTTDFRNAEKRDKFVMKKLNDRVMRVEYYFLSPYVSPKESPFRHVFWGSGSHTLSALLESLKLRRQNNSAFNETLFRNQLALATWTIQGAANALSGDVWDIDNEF


Tests used:
[1] = biological target: T1, cyno TfR extracellular domain …; test: SPR, IgG;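 also: His-tagged TfR captured via immobilized anti-His antibody on a CM5 chip, antibody injected in 3-fold dilution series by single cycle kinetics, 1:1 Langmuir or steady-state fit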
[2] = biological target: T2, human TfR extracellular domain with N-terminal His tag (human, UniProt P02786 89-760); test: SPR, IgG;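 also: His-tagged TfR captured via immobilized anti-His antibody on a CM5 chip, antibody injected in 3-fold dilution series by single cycle kinetics, 1:1 Langmuir or steady-state fit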
T2 construct: Biotinylated in some assays; also called huTfR; HuTfR

[3] = biological target: BACE1 in primary mouse cortical neurons (mouse, UniProt P56818 46-501); test: cell-based or functional assay
murine BACE1 ECD [4] = biological target: T3, murine BACE1 ECD; test: Octet, pH 7.5;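 also: antibodies captured on anti-human capture sensor tips, dissociation monitored in PBS with BSA, Kd obtained from kinetic fit to a one-to-one binding model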
T3 construct: analyte of the Octet assay (200 nM) and enzyme of the first short substrate assay
Method: (§1) Anti-BACE1 antibodies were loaded onto anti-human capture (AHC) sensors (tips) followed by 60 seconds baseline in assay buffer. […] Tips were transferred to assay buffer for 5 minutes, 30 minutes, or 120 minutes depending on the off-rate, for off-rate measurement. Assay buffer was either PBS+0.1% BSA, pH 7.5; or PBS+0.1% BSA, pH 5.0. Kinetics were analyzed using a 1:1 binding model.

human BACE1 ECD [5] = biological target: T4, human BACE1 ECD; test: Octet, pH 7.5;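 also: antibodies captured on anti-human capture sensor tips, dissociation monitored in PBS with BSA, Kd obtained from kinetic fit to a one-to-one binding model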
T4 construct: analyte of the Octet assay (200 nM) and enzyme of the first short substrate assay; also called human BACE1 extracellular domain
Method: as §1

[6] = biological target: T5, human BACE1 (R&D Systems) (human, UniProt P56817); test: SPR (Biacore)
T5 construct: recombinant, commercial (R&D Systems)
Method: Binding affinities of certain anti-BACE1 IgGs were measured by surface plasmon resonance (SRP) using a BIAcore™-T100 instrument. […] Association rates (kon) and dissociation rates (koff) were calculated using a simple one-to-one Langmuir binding model (BIAcore Evaluation Software version 3.2). The equilibrium dissociation constant (KD) was calculated as the ratio koff/kon.

murine BACE1 ECD [7] = biological target: T3, murine BACE1 ECD; test: Octet, pH 5.0;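 also: antibodies captured on anti-human capture sensor tips, dissociation monitored in PBS with BSA buffer, kinetics fitted with a one-to-one binding model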
Method: as §1

human BACE1 ECD [8] = biological target: T4, human BACE1 ECD; test: Octet, pH 5.0;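 also: antibodies captured on anti-human capture sensor tips, dissociation monitored in PBS with BSA buffer, kinetics fitted with a one-to-one binding model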
Method: as §1

T3 sequence (single chain, as listed by the source limits assumed): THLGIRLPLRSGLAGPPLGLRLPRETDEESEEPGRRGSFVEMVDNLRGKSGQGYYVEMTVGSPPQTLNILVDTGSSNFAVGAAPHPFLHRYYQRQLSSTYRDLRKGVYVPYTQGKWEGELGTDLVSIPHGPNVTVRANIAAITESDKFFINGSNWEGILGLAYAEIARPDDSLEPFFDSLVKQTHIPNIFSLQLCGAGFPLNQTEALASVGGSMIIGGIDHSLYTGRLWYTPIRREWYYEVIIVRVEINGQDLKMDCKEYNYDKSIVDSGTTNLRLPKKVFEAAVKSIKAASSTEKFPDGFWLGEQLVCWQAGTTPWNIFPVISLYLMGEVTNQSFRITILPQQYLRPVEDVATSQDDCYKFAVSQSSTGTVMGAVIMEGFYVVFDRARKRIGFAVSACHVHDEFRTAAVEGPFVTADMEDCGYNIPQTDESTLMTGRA
T5 sequence (P56817 22-457 limits assumed): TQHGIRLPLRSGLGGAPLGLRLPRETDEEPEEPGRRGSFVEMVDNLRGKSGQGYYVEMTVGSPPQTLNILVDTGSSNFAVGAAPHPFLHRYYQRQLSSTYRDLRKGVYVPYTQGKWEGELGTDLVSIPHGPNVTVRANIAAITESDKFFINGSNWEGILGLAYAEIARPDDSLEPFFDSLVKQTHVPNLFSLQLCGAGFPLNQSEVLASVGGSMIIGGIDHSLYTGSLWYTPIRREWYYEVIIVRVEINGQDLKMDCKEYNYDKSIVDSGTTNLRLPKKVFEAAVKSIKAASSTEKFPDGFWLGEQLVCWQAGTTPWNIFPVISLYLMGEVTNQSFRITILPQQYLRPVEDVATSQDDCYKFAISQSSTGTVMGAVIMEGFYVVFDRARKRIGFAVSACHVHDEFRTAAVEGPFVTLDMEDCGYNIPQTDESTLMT
Chain of BACE1 in primary mouse cortical neurons (P56818 46-501): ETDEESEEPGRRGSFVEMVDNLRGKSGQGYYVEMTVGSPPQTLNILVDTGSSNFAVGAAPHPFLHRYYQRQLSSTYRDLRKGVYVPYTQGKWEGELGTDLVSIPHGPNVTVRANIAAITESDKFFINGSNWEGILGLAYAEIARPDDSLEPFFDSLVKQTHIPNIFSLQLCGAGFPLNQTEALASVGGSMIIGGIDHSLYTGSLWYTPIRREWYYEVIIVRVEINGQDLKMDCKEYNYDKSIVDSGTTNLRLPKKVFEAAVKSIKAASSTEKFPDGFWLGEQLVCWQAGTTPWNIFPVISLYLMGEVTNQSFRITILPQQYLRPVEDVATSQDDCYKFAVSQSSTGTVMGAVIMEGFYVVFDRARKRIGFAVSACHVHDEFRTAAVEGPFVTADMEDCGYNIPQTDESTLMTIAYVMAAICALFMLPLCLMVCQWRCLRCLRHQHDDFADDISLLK
T4 sequence (single chain, as listed by the source limits assumed): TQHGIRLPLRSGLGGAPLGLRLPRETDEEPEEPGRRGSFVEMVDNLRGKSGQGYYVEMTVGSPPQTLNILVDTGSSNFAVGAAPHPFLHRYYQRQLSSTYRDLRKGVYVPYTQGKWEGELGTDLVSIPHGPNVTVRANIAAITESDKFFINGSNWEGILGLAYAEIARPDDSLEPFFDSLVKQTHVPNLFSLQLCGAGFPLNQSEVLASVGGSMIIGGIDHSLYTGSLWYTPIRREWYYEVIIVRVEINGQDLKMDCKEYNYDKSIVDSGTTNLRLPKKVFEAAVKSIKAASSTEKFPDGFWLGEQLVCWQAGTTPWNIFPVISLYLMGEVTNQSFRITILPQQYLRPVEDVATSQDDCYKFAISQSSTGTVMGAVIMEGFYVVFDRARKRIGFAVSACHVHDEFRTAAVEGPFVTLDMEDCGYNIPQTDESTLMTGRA
T2 sequence (P02786 89-760 G142S): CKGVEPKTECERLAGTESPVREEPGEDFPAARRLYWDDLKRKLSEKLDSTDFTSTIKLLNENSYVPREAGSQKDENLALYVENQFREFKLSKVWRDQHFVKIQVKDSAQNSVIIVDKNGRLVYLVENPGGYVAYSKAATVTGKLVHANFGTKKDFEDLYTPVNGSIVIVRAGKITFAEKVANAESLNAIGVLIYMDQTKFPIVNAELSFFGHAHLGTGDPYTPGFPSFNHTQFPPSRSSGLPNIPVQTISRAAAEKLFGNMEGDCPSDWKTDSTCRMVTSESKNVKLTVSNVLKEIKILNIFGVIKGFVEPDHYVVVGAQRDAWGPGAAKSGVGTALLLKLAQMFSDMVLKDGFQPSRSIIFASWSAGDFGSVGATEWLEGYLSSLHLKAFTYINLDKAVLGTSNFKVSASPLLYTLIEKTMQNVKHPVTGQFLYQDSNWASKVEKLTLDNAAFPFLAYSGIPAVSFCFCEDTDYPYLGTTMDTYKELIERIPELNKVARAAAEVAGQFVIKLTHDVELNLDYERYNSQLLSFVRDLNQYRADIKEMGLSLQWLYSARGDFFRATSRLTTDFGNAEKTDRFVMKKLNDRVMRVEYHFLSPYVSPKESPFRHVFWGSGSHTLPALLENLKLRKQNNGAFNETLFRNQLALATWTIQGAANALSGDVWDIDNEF

Binder | Kd [1] [nM] | Kd [2] [nM] | IC50, Abeta x-40 in mouse cortical neurons [3] [nM] | maximal % inhibition of Abeta x-40 [3] [%] | Kd (murine BACE1 ECD [4]) [nM] | Kd (human BACE1 ECD [5]) [nM] | Kd [6] [nM] | Kd (murine BACE1 ECD [7]) [nM] | Kd (human BACE1 ECD [8]) [nM]
hu16F6.v1 (antibody, V domains shown, IgG; HC 71 V, 78 F) VH: EVQLVESGPGLVKPSETLSLTCTVSGNSITSEYAWNWIRQPPGKGLEWIGYISYSGTTSYNPSLKSRVTISVDTSKNQFSLKLSSVTAADTAVYYCARYGYGNPATRYFDVWGQGTLVTVSS VL: DIQMTQSPSSLSASVGDRVTITCRASKSISKYLAWYQQKPGKAPKLLLYSGSTLQSGVPSRFSGSGSGTDYTLTISSLQPEDFATYYCQQHNEYPWTFGQGTKVEIK | 199 | 18.7 | – | – | – | – | – | – | –
hu16F6.v4 (antibody, V domains shown, IgG; HC 71 R, 78 L; also called 16F6.v4 IgG) VH: EVQLVESGPGLVKPSETLSLTCTVSGNSITSEYAWNWIRQPPGKGLEWIGYISYSGTTSYNPSLKSRVTISRDTSKNQLSLKLSSVTAADTAVYYCARYGYGNPATRYFDVWGQGTLVTVSS VL: DIQMTQSPSSLSASVGDRVTITCRASKSISKYLAWYQQKPGKTNKLLLYSGSTLQSGVPSRFSGSGSGTDYTLTISSLQPEDFATYYCQQHNEYPWTFGQGTKVEIK | 11 | 0.884 | – | – | – | – | – | – | –
hu16F6.v3 (antibody, V domains shown, IgG; HC 71 V, 78 F) VH: EVQLVESGPGLVKPSETLSLTCTVSGNSITSEYAWNWIRQPPGKGLEWIGYISYSGTTSYNPSLKSRVTISVDTSKNQFSLKLSSVTAADTAVYYCARYGYGNPATRYFDVWGQGTLVTVSS VL: DIQMTQSPSSLSASVGDRVTITCRASKSISKYLAWYQQKPGKTNKLLLYSGSTLQSGVPSRFSGSGSGTDYTLTISSLQPEDFATYYCQQHNEYPWTFGQGTKVEIK | 34.5 | 4.11 | – | – | – | – | – | – | –
6270 (antibody, V domains shown, anti-BACE1 IgG) VH: QVQLVQSGAEVKKPGSSVKVSCKASGGTFSGYGISWVRQAPGQGLEWMGNIIPGFGTANYAQKFQGRVTITADESTSTAYMELSSLRSEDTAVYYCARSGGTKYGMLDVWGQGTMVTVSS VL: EIVMTQSPATLSVSPGERATLSCRASQSVSSNLAWYQQKPGQAPRLLIYGASTRATGIPARFSGSGSGTEFTLTISSLQSEDFAVYYCQQLLLWPPRTFGGGTKVEIK | – | – | 4.48 | 85 | < 0.4 | < 0.29 | 4.64 | < 0.41 | < 0.29
6274 (antibody, V domains shown, anti-BACE1 IgG) VH: QVQLVQSGAEVKKPGSSVKVSCKASGGTFSGYGISWVRQAPGQGLEWMGNIIPGFGTANYAQKFQGRVTITADESTSTAYMELSSLRSEDTAVYYCARSGGTKYGMLDVWGQGTMVTVSS VL: EIVMTQSPATLSVSPGERATLSCRASQSVSSHLAWYQQKPGQAPRLLIYGASTRATGIPARFSGSGSGTEFTLTISSLQSEDFAVYYCQQLILWPPRTFGGGTKVEIK | – | – | 4.82 | 85 | < 0.37 | < 0.37 | 4.18 | 0.76 | 0.53
6288 (antibody, V domains shown, anti-BACE1 IgG) VH: QLQLQESGPGLVKPSETLSLTCTVSGGSTSSSSYYWGWIRQPPGKGLEWIGSIYRSGSTYYNPSLRSRVTISVDTSKNQFSLKLSSVTAADTAVYYCARVGHGISYFDLWGRGTLVTVSS VL: EIVLTQSPATLSLSPGERATLSCRASQSVSSYLAWYQQKPGQAPRLLIYDASNRATGIPARFSGSGSGTDFTLTISSLEPEDFAVYYCQQSLTWPPRTFGGGTKVEIK | – | – | 11 | 67 | < 0.23 | < 0.21 | 4.79 | 0.28 | < 0.21
6275 (antibody, V domains shown, anti-BACE1 IgG) VH: QVQLVQSGAEVKKPGSSVKVSCKASGGTFRGYAISWVRQAPGQGLEWMGNIIPGFGTANYAQKFQGRVTITADESTSTAYMELSSLRSEDTAVYYCARSGGTKYGMLDVWGQGTMVTVSS VL: EIVMTQSPATLSVSPGERATLSCRASQSVSSNLAWYQQKPGQAPRLLIYGASTRATGIPARFSGSGSGTEFTLTISSLQSEDFAVYYCQQLFLWPPRTFGGGTKVEIK | – | – | 1.27 | 71 | < 0.49 | < 0.48 | 2.68 | < 0.37 | < 0.34
6279 (antibody, V domains shown, anti-BACE1 IgG) VH: QVQLVQSGAEVKKPGSSVKVSCKASGGTFRGYAISWVRQAPGQGLEWMGNIIPGFGTANYAQKFQGRVTITADESTSTAYMELSSLRSEDTAVYYCARSGGTKYGMLDVWGQGTMVTVSS VL: EIVMTQSPATLSVSPGERATLSCRASQSVSSNLAWYQQKPGQAPRLLIYGASTRATGIPARFSGSGSGTEFTLTISSLQSEDFAVYYCQQLLLWPPRTFGGGTKVEIK | – | – | 6.23 | 71 | < 0.46 | < 0.45 | 2.11 | < 0.43 | < 0.36
hu7A4.v13 (antibody, V domains shown, IgG) VH: EVQLVQSGAEVKKPGASVKVSCKGSGYTFTDYAMHWVRQAPGQGLEWMGGISTYFGRTNYNQKFKGRVTMTVDTSISTAYMELSRLRSDDTAVYYCARGLSGNYVMDYWGQGTTVTVSS VL: DIVMTQSPDSLAVSLGERATINCRASESVDSYGNSFMHWYQQKPGQPPKLLIYRASNLESGVPDRFSGSGSGTDFTLTISSLQAEDVAVYYCQQSNEAPPTFGQGTKLEIK | 11.4 | 1.36 | – | – | – | – | – | – | –
hu7A4.v10 (antibody, V domains shown, IgG) VH: EVQLVQSGAEVKKPGASVKVSCKGSGYTFTDYAMHWVRQAPGQGLEWMGGISTYFGRTNYNQKFKGRVTMTRDTSISTAYMELSRLRSDDTAVYYCARGLSGNYVMDYWGQGTTVTVSS VL: DIVMTQSPDSLAVSLGERATINCRASESVDSYGNSFMHWYQQKPGQPPKLLIYRASNLESGVPDRFSGSGSRTDFTLTISSLQAEDVAVYYCQQSNEGPPTFGQGTKLEIK | 0.505 | 0.143 | – | – | – | – | – | – | –
hu7A4.v14 (antibody, V domains shown, IgG) VH: EVQLVQSGAEVKKPGASVKVSCKGSGYTFTDYAMHWVRQAPGQGLEWMGGISTYFGRTNYNQKFKGRVTMTVDTSISTAYMELSRLRSDDTAVYYCARGLSGNYVMDYWGQGTTVTVSS VL: DIVMTQSPDSLAVSLGERATINCRASESVDSYGNSFMHWYQQKPGQPPKLLIYRASNLESGIPDRFSGSGSGTDFTLTISSLQAEDVAVYYCQQSNEAPPTFGQGTKLEIK | 15.7 | 1.19 | – | – | – | – | – | – | –
hu7A4.v7 (antibody, V domains shown, IgG) VH: EVQLVQSGAEVKKPGASVKVSCKASGYTFTDYAMHWVRQAPGQGLEWMGGISTYFGRTNYNQKFKGRVTMTVDTSISTAYMELSRLRSDDTAVYYCARGLSGNYVMDYWGQGTTVTVSS VL: DIVMTQSPDSLAVSLGERATINCRASESVDSYGNSFMHWYQQKPGQPPKLLIYRASNLESGIPDRFSGSGSGTDFTLTISSLQAEDVAVYYCQQSNEGPPTFGQGTKLEIK | 1.18 | 0.515 | – | – | – | – | – | – | –
hu7A4.v9 (antibody, V domains shown, IgG) VH: EVQLVQSGAEVKKPGASVKVSCKASGYTFTDYAMHWVRQAPGQGLEWMGGISTYFGRTNYNQKFKGRVTMTRDTSISTAYMELSRLRSDDTAVYYCARGLSGNYVMDYWGQGTTVTVSS VL: DIVMTQSPDSLAVSLGERATINCRASESVDSYGNSFMHWYQQKPGQPPKLLIYRASNLESGVPDRFSGSGSRTDFTLTISSLQAEDVAVYYCQQSNEGPPTFGQGTKLEIK | 0.428 | 0.119 | – | – | – | – | – | – | –
hu7A4.v12 (antibody, V domains shown, IgG) VH: EVQLVQSGAEVKKPGASVKVSCKGSGYTFTDYAMHWVRQAPGQGLEWMGGISTYFGRTNYNQKFKGRVTMTVDTSISTAYMELSRLRSDDTAVYYCARGLSGNYVMDYWGQGTTVTVSS VL: DIVMTQSPDSLAVSLGERATINCRASESVDSYGNSFMHWYQQKPGQPPKLLIYRASNLESGVPDRFSGSGSRTDFTLTISSLQAEDVAVYYCQQSNEGPPTFGQGTKLEIK | 2.09 | 0.2 | – | – | – | – | – | – | –
hu7A4.v11 (antibody, V domains shown, IgG) VH: EVQLVQSGAEVKKPGASVKVSCKASGYTFTDYAMHWVRQAPGQGLEWMGGISTYFGRTNYNQKFKGRVTMTVDTSISTAYMELSRLRSDDTAVYYCARGLSGNYVMDYWGQGTTVTVSS VL: DIVMTQSPDSLAVSLGERATINCRASESVDSYGNSFMHWYQQKPGQPPKLLIYRASNLESGVPDRFSGSGSRTDFTLTISSLQAEDVAVYYCQQSNEGPPTFGQGTKLEIK | 0.943 | 0.156 | – | – | – | – | – | – | –
